The experiment concerns the target KGF receptor (mouse) (UniProt P21803). Nature of the experiment: cell-based or functional assay.
UniProt P21803, sequence (P21803 22-821): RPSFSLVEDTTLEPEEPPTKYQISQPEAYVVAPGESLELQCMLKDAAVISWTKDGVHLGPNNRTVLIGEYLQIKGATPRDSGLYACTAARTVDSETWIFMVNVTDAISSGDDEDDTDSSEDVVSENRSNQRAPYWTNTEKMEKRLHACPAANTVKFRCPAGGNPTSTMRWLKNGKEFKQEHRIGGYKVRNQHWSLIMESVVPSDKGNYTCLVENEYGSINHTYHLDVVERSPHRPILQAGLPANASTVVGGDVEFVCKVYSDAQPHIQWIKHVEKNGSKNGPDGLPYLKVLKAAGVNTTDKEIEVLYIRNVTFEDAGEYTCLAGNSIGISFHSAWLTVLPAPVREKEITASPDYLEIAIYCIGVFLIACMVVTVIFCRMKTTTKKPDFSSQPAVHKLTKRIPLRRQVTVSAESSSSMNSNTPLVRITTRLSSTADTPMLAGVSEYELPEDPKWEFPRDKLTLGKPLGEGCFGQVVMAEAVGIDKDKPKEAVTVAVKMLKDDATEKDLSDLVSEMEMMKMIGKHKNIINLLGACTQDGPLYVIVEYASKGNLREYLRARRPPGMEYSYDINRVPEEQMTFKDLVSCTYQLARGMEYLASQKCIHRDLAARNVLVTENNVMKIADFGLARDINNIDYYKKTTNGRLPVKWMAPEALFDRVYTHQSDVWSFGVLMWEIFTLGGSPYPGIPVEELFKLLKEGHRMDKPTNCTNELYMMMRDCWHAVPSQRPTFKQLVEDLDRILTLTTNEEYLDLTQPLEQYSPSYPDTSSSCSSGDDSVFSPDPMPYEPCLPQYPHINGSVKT

Take acidic FGF (ligand): the potency as mitogen for Balb/Mk cells (cell proliferation), relative to KGF (fold less than KGF) was 10.

(Values after US20030109439A1.)
